Data set [1] deals with VEGFR-3 (as used in the biosensor analysis) (UniProt P35916). As to the kind of experiment: SPR. The following applies: ligand.
For data set [2], the target named is VEGFR-2 (as used in the biosensor analysis) (UniProt P35968). The data set is described as follows: SPR. The following applies: ligand.
For data set [3], the target named is VEGFR-3 (as used in the biosensor analysis) (UniProt P35916). The data set is described as follows: SPR biosensor, 1:1 Langmuir model; reference VEGF-DSSTS.IISS on the same receptor.
Data set [4] deals with VEGFR-2 (as used in the biosensor analysis) (UniProt P35968). Described as above.
The next data set addresses T1, VEGFR-1-Ig (human, UniProt P17948 27-758).
T1 construct: extracellular domain; R&D Systems is named as its source; used as a negative control; also called soluble fusion protein of the extracellular domain of human VEGFR-1 and the Fc portion of human IgG; not shown: Fc portion of human IgG
As to the kind of experiment: pull-down with receptor-Ig on protein-A sepharose from LoVo conditioned medium, Western blot. The protocol:
Binding to receptor extracellular domains was examined using soluble fusion proteins consisting of the extracellular domains of human VEGFR-1, VEGFR-2 or VEGFR-3 joined to the Fe portions of human IgG (referred to as VEGFR-1-Ig (R&D Systems), VEGFR-2-Ig and VEGFR-3-Ig) (Achen et al, Proc. Natl. Acad. Sci. USA 95 548-553, 1998). Protein-A sepharose beads were incubated overnight with the conditioned media of 293EBNA cells expressing VEGFR-1-Ig, VEGFR-2-Ig or VEGFR-3-Ig to precipitate the soluble receptor constructs. The soluble receptors bound to protein-A sepharose beads were recovered by centrifugation (5 minutes, 250×g, 4° C.) and washed twice with binding buffer (0.5% (w/v) BSA, 0.02% (v/v) Tween 20, 10 μg/ml heparin in phosphate buffered saline). The soluble receptors bound to protein-A sepharose beads were then incubated with the conditioned media of LoVo cells, that had been co-transfected with pVDAPEX FULL-N-FLAG and pcDNA3:furin, for three hours at room temperature, and washed twice with binding buffer. Proteins bound to the VEGFR-2-Ig and VEGFR-3-Ig constructs were analysed by reducing SDS-PAGE and Western blotting with a biotinylated antibody against the VHD of human VEGF-D (R&D Systems), followed by Streptavidin-horse radish peroxidase conjugate (Zymed).

For data set [5], the target named is T2, VEGFR-3 (as used in the biosensor analysis) (UniProt P35916 25-775).
T2 chain: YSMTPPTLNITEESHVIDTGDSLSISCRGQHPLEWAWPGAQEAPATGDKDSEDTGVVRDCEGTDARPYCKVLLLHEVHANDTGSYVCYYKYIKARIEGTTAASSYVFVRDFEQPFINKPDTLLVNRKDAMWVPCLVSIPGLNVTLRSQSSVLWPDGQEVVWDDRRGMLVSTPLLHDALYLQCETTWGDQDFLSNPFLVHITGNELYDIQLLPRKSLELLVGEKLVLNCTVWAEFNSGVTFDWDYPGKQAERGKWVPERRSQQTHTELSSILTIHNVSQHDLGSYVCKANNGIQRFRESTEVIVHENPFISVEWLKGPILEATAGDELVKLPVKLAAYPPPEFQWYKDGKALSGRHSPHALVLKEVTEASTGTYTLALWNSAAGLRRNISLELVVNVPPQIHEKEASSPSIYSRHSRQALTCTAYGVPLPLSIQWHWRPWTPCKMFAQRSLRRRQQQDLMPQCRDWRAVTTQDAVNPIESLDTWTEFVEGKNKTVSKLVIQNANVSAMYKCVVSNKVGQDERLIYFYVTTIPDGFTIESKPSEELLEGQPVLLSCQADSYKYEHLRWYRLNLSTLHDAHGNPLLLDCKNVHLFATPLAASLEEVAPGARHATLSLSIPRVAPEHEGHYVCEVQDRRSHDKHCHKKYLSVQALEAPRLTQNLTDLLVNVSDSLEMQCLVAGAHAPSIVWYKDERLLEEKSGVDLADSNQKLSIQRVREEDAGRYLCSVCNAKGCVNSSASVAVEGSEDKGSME
The data set is described as follows: SPR. (In general: Surface plasmon resonance follows binding to a sensor surface in real time, without labels.)

In data set [6] the target is T3, VEGFR-2 (as used in the biosensor analysis) (UniProt P35968 20-764).
T3 chain: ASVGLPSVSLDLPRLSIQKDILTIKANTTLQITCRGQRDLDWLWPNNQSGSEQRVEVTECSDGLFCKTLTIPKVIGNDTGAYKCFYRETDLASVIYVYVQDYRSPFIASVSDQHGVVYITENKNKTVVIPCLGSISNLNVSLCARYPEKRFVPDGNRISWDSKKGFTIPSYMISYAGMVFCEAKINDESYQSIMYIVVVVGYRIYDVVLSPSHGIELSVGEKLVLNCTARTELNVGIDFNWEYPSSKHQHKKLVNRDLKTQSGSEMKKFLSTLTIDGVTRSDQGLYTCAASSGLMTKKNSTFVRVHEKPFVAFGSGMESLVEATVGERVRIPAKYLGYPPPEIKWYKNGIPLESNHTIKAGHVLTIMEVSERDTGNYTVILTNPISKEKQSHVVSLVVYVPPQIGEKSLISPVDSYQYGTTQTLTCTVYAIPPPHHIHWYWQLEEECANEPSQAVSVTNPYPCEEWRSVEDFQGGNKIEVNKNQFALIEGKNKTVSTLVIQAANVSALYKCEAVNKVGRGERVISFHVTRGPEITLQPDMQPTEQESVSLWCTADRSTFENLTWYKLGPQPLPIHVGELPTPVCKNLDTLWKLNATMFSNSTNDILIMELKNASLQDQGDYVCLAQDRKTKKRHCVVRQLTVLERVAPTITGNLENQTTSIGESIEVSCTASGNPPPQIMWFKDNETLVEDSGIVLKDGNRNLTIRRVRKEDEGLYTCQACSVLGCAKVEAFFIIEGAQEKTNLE
As to the kind of experiment: SPR.

The target in data set [7] is VEGFR-2 (as used in the biosensor analysis) (UniProt P35968). As to the kind of experiment: SPR biosensor, 1:1 Langmuir model; reference VEGF-DSSTS.IISS on the same receptor; the preparation held traces of processed forms.
For the next data set, the target named is VEGFR-2 (Homo sapiens, UniProt P35968). The data set is described as follows: Biosensor analysis (surface plasmon resonance) of VEGF-D ligands on VEGFR-2. The class given is binding. The following applies: 1:1 Langmurian model. Here is the method: To determine the relative affinities of the ligands VEGF-DSSTS.IISS, VEGF-D-FULL-N-FLAG and mature VEGF-D (designated VEGF-DΔNΔC) for VEGFR-2 and VEGFR-3, the relative binding kinetics for these interactions was analyzed by biosensor analysis using surface plasmon resonance detection (Nice et al., Bioessays, 21:339-352, 1999). The preparations of VEGF-DSSTS.IISS and VEGF-DΔNΔC used for this analysis each consisted of one VEGF-D species devoid of other forms of VEGF-D but the preparation of VEGF-D-FULL-N-FLAG did contain traces of partially processed as well as full-length material, reflecting the capacity of wild-type full-length VEGF-D to be proteolytically processed in the 293EBNA cell cultures) from which these proteins were purified (see FIG. 10B). The binding constants for the interactions were obtained by analysis of the initial dissociation phase to obtain the kd, which was then used to constrain a global analysis of the association region of the curves, using regions of the curves where a 1:1 Langmurian model appeared to be operative.
Sequence of VEGFR-2 (P35968 20-1356): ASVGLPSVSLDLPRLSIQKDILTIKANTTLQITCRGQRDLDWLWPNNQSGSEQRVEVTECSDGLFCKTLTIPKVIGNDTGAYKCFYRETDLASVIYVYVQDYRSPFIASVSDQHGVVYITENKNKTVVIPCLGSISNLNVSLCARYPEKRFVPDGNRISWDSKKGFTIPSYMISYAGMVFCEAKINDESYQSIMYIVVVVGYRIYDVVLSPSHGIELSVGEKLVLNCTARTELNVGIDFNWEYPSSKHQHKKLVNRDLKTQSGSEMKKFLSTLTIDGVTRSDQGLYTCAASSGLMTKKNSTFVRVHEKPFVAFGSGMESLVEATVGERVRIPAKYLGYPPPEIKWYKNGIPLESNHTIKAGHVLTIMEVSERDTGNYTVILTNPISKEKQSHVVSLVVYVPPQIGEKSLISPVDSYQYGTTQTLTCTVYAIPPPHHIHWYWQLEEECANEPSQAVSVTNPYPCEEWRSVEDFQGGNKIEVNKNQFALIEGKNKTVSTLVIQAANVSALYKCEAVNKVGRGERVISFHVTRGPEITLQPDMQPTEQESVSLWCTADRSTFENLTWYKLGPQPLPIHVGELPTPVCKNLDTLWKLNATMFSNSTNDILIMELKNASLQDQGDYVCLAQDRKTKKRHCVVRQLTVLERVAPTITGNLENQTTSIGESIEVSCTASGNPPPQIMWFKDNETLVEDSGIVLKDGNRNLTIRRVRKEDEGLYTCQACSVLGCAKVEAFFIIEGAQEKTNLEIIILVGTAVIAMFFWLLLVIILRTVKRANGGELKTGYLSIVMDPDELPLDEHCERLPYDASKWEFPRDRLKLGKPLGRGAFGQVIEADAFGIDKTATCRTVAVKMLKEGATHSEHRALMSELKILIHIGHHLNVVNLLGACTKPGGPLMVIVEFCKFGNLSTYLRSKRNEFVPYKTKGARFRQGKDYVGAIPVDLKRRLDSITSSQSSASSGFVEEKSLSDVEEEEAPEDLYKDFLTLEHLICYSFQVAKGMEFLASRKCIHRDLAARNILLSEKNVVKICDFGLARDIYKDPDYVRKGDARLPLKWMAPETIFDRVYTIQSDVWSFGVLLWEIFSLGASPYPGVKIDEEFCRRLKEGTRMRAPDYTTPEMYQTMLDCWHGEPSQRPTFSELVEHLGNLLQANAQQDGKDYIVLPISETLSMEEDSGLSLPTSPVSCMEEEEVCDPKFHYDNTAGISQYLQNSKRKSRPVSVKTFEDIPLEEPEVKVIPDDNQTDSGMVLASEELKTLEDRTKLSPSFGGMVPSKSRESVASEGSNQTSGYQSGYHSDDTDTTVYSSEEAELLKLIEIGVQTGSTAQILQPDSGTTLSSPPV

Another data set has as its system furin. The data set is described as follows: Knockdown of furin protein by shRNA (co-transfection of shRNA and furin expression constructs). The class given is cell-based, human. From the text:
Short hairpin RNA (shRNA) primers targeting furin RNA were designed using an in-house primer design algorithm. These primer pairs form the shRNA structure that then results in functional siRNA targeting sequences 457-476 and 558-575 of open reading frame of human furin sequence (Genbank Accession No. NM_002569.2, SEQ ID NO: 21). The underlined sections are structural motifs for the formation of the small hairpin RNA structure and for the ligation of the annealed primers to the parental vector. In bold the 5′-3′ upper strand of the target sequence which is naturally a part of the primer sequence.
The above shRNA primers were generated to target the sequences 5′-GACGATGGCATCGAGAAGAA-3′ (SEQ ID NO: 19) and 5′-ACA CAC AGA TGA ATG ACA A-3′ (SEQ ID NO: 20). Primers were annealed by heating a mix of 60 pM of both primers in 50 μl annealing buffer (0.1 M potassium acetate, 2 mM magnesium acetate, 30 mM HEPES pH 7.4) at 94° C. for 4 min then 70° C. for 10 min and allowed to cool to room temperature. Annealing was verified in 3% low melting point agarose gel. The shRNA construct was then ligated into pMSCVpac mU6 which is a derivative of pMSCV (Clontech). The shRNAs were validated by assessing reduction of furin protein levels resulting from co-transfections of shRNA and furin expression constructs in 293EBNA cells or other cell lines stably overexpressing furin.

T1 sequence (P17948 27-758): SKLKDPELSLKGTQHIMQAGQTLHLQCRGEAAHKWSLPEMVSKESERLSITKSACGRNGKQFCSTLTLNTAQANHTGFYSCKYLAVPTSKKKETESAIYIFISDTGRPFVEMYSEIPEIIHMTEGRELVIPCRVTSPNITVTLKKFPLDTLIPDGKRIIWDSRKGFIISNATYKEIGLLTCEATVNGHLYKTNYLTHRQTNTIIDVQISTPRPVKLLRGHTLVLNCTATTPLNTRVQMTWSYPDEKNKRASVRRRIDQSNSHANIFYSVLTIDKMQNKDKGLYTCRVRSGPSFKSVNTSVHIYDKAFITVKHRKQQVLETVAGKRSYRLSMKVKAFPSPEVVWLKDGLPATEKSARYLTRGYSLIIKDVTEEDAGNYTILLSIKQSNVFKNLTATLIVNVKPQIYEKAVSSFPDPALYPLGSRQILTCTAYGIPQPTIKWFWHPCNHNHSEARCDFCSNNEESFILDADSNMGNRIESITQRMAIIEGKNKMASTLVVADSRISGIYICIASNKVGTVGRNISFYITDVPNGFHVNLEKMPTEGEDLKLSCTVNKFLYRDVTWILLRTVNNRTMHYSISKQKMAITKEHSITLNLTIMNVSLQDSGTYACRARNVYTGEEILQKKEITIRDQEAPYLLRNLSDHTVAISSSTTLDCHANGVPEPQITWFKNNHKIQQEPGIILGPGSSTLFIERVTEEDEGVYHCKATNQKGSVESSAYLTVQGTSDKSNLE

For orientation: Kd means a measure of binding affinity in units of concentration. Regarding “mature VEGF-D (designated VEGF-DΔNΔC) (from UniProt O43915 93-201)”, the values for the Kd in [1] and in data set [2] were 44 nM and 8.7 nM, respectively.

On to “mature VEGF-D (designated VEGF-DΔNΔC) (from UniProt O43915 93-201) (ligand)”, for which the fold greater affinity than VEGF-DSSTS.IISS in data set [3] came to 18 fold. For the same molecule, the fold greater apparent affinity than VEGF-DSSTS.IISS in data set [4] amounted to 17000 fold.

B1: mature form of VEGF-D generated by furin (ligand, human, UniProt O43915 89-205, looked up)
chain: FAATFYDIETLKVIDEEWQRTQCSPRETCVEVASELGKSTNTFFKPPCVNVFRCGGCCNEESLICMNTSTSYISKQLFEISVPLTSVPELVPVKVANHTGCKCLPTAPRHPYSIIRR
notes: range 89-205; Present in conditioned medium of LoVo cells co-transfected with pVDAPEX FULL-N-FLAG and pcDNA3:furin; not purified; also called ˜21 kDa VEGF-D species; mature VEGF-D
On to B1, for which the binding result with VEGFR-1-Ig was “no binding”.

B2: VEGF-D-FULL-N-FLAG (full-length VEGF-D tagged with FLAG at the N-terminus) (ligand)
chain: NEHGPVKRSSQSTLERSEQQIRAASSLEELLRITHSEDWKLWRCRLRLKSFTSMDSRSASHRSTRFAATFYDIETLKVIDEEWQRTQCSPRETCVEVASELGKSTNTFFKPPCVNVFRCGGCCNEESLICMNTSTSYISKQLFEISVPLTSVPELVPVKVANHTGCKCLPTAPRHPYSIIRRSIQIPEEDRCSHSKKLCPIDMLWDSNKCKCVLQEENPLAGTEDHSHLQEPALCGPHMMFDEDRCECVCKTPCPKDLIQHPKNCSCFECKESLETCCQKHKLFHPDTCSCEDRCPFHTRPCASGKTACAKHCRFPKEKRAAQGPHSRKNP
With B2, the dissociation constant Kd in data set [5] turned out to be 490 nM; in [6] it was 1600 nM. This molecule also yielded a fold greater affinity than VEGF-DSSTS.IISS in data set [7] of 94 fold.

B3: VEGF-DSSTS.IISS (ligand)
chain: NEHGPVKRSSQSTLERSEQQIRAASSLEELLRITHSEDWKLWRCRLRLKSFTSMDSRSASHSSTSFAATFYDIETLKVIDEEWQRTQCSPRETCVEVASELGKSTNTFFKPPCVNVFRCGGCCNEESLICMNTSTSYISKQLFEISVPLTSVPELVPVKVANHTGCKCLPTAPRHPYSIISSSIQIPEEDRCSHSKKLCPIDMLWDSNKCKCVLQEENPLAGTEDHSHLQEPALCGPHMMFDEDRCECVCKTPCPKDLIQHPKNCSCFECKESLETCCQKHKLFHPDTCSCEDRCPFHTRPCASGKTACAKHCRFPKEKRAAQGPHSRKNP
As for B3, the values for the Kd in data set [5] and in data set [6] were 790 nM and 150000 nM, respectively.

B4: VEGF-D-FULL-N-FLAG: full-length VEGF-D tagged with FLAG at the N-terminus; preparation contained traces of partially processed material (protein)
chain: NEHGPVKRSSQSTLERSEQQIRAASSLEELLRITHSEDWKLWRCRLRLKSFTSMDSRSASHRSTRFAATFYDIETLKVIDEEWQRTQCSPRETCVEVASELGKSTNTFFKPPCVNVFRCGGCCNEESLICMNTSTSYISKQLFEISVPLTSVPELVPVKVANHTGCKCLPTAPRHPYSIIRRSIQIPEEDRCSHSKKLCPIDMLWDSNKCKCVLQEENPLAGTEDHSHLQEPALCGPHMMFDEDRCECVCKTPCPKDLIQHPKNCSCFECKESLETCCQKHKLFHPDTCSCEDRCPFHTRPCASGKTACAKHCRFPKEKRAAQGPHSRKNP
modifications: left off: small tags and cut ends
notes: full-length VEGF-D tagged with FLAG at the N-terminus; preparation contained traces of partially processed material
As to B4, the “apparent affinity for VEGFR-2 relative to unprocessed mutant VEGF-DSSTS.IISS” value in the data set with VEGFR-2 is recorded as roughly 94 fold.

B5: Second shRNA pair: shRNA primer pair (SEQ ID NO:17 and 18) targeting bases 558-575 of human furin (nucleic acid)
chain 1: CACACAGATGAATGACAATTCAAGAGATTGTCATTCATCTGTGTGTTTTTT
chain 2: AATTAAAAAACACACAGATGAATGACAATCTCTTGAATTGTCATTCATCTGTGTG
As for B5, the “knockdown of protein expression in vitro” value in the data set with furin is listed as 70-80%.

B6: First primer pair: shRNA primer pair (SEQ ID NO:15 and 16) targeting bases 457-476 of human furin (nucleic acid)
chain 1: GACGATGGCATCGAGAAGAATTCAAGAGATTCTTCTCGATGCCATCGTCTTTTTT
chain 2: AATTAAAAAAGACGATGGCATCGAGAAGAATCTCTTGAATTCTTCTCGATGCCATCGTC
Consider B6, for which the “knockdown of furin protein expression in vitro” value in the data set with furin is “almost complete knockdown”.

The record behind these values is patent US20070224194A1, “Methods for Inhibiting Angiogenesis and/or Lymphangiogenesis” (LUDWIG INSTITUTE FOR CANCER RESEARCH, priority 2004, published 2007).
